According to the supplement of paper PMC9170038:

Test system: K4 kissing-loop RNA reporter
Test: apparent KD of K4 kissing-loop reporter; higher = weaker reporter binding
Settings: Eterna round: R107
Procedure: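 RNA-MaP round R107: designed RNA switches with theophylline, tryptophan, arginine or FMN aptamers are transcribed on-chip within common flanks. They are titrated with a labelled K4 kissing-loop RNA reporter in RNA-MaP buffer (100 mM Tris pH 7.5, 80 mM KCl, 4 mM MgCl2), without ligand or with the indicated ligand. Median apparent KD per design.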

[1] = input ligand: theophylline 20 uM
[2] = input ligand: tryptophan 2.4 mM
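Note: bound reporter read as fluorescence of individual clusters on recovered sequencing chips by microscopy, with normalized cluster intensities fitted with a binding model.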

Sequence | apparent KD of K4 kissing-loop reporter (input ligand: FMN 200 uM) | apparent KD of K4 kissing-loop reporter (input ligand: arginine 13.2 mM) | apparent KD of K4 kissing-loop reporter (input ligand: none) | apparent KD of K4 kissing-loop reporter [1] | apparent KD of K4 kissing-loop reporter [2]
AGAACUGUCUUGGAUACCAGUGAUGUUGGUAUCUAUGUGUGAGUGCAAAGCGUCCCACAUUGCCCUUGGCAGCUAAGACUGUUCA [Omei KL Theo B Exc A v2] | 154 nM | 132 nM | 146 nM | 216 nM | 145 nM
AGAAGGAGACUUGCAACGACUCCUUCAGACUAGGAUAUCAGGAAACUGAGAAGGAGUCUACUUGCAGUGAUGUUGCAAGAAUAAU [[F]''-[K]'-[F]'-[F1]-[F2]-[K1]-[K2]_Design3] | 129 nM | 147 nM | 130 nM | 135 nM | 125 nM
AGACCUCAGUGAUGUUGAGGUAACACUGAUACCAGCGACUUAAUUCGCCCUUGGCAGCAGUCCACCGAGGUAUCUGAUUAGGUCA [#24 K4 Theophylline A Exclusion] | 171 nM | 173 nM | 179 nM | 273 nM | 155 nM
AGACUACUGACAGGAUAUAACAUCCUGGUCGUAUACCGAAAGGUAUACGAUUUCCUUCUAGUGAUGUUAGAAGGGUCGGUAGUCA [Omei KL FMN B Exc B v14] | 103 nM | 78 nM | 90.7 nM | 70.3 nM | 82.9 nM
AGACUACUGAUAGGAUAUAACAUACUACCUCGUAUACCAAAGGUAUACGAGGCCCUUCUAGUGAUGUUAGAAGGGUCGGUAGUCA [Omei KL FMN B Exc B v5] | 93.5 nM | 76.4 nM | 79.5 nM | 81.2 nM | 83.2 nM
AGAGAUAUAUGAGGAUAUGAGAUAGUUAAUGAGUGAGUUUUAGUGUUGUUUGGUUAGUGAUGUUAUUUAGAAGGCGUGAGUGAUG [grrfullin] | 97.7 nM | 66.5 nM | 70.2 nM | 80 nM | 65.7 nM
AGAGUACGAAAGUACUCCUCUACACACUGACGAGGACCGGUACGGCCGCCACUCGAGUUGAGUGAUGUUCGAUAGUGUGUAGAGA [Omei KL Tryp A SS C v3] | 213 nM | 38.4 nM | 97 nM | 312 nM | 1120 nM
AGAUAGGGCUGAAGGAGCGUCGGAGAAGAGAAGAAGAAAUCCAGUGAUGUUGGAUAAAUCCGACAGGUAGGUCGCAGUUUUAUGA [hbob_SS_Arginine_B_2t137] | 122 nM | 135 nM | 115 nM | 179 nM | 119 nM
AGAUGGCAGUGAUGUUGCUGUUGGAGGGAUAAGGAUAUUGGCUAAACAAGAAGGUAUCGGCGGCAUUGAGGAAUGGGAGGCGCCU [theeternabot_exclusion_KL_FMN_A_7] | 530 nM | 329 nM | 510 nM | 449 nM | 405 nM
AGAUUCGACACGGCCGCCACUCGUGGUGGAUUAUCCUAUGUAAGACAUGAGUGAUGUUCAUGUACGAGGACCGGGUGUUGAGUCU [KL-XTryp-B5 #analogue] | 496 nM | 403 nM | 488 nM | 568 nM | 272 nM
AGCAUUAUCAGAAGGAGCGUGUAUAAUUCAAGAGAAUUGUUUUCGAGUGAUGUUCGUAAUACACAGGUAGGUCGCUGAUAUAGCA [JR_ExcArginiB_Sub001] | 224 nM | 258 nM | 257 nM | 302 nM | 221 nM
AGCAUUUUCAGAAGGAGCGUGAAUUAUUCUUAAGUAUAUUAUACGAGUGAUGUUCGUAUUUCACAGGUAGGUCGCUGAUAUAGCA [JR_SSArginiB_Sub003] | 57.4 nM | 89.2 nM | 54.6 nM | 76.2 nM | 46.8 nM
AGCGACUCGAAAGGGUCGCGGCUAAGGGAUACCAGUGAUGUUGGUCACCCUUGGCAGCCCAGAAGCCAAGCCACCAAAGGUGGCA [Omei KL Theo A Exc A v10] | 124 nM | 99 nM | 119 nM | 114 nM | 116 nM
AGCGGCGCGCUGGAUACCAGUGUCCGACGCGUUAGUAUAGAUCCAAAGUGAUGUUUUGGUCACCCUUGGCAGCCACCUCUGUCGG [theeternabot_exclusion_KL_Theo_B_29] | 237 nM | 192 nM | 245 nM | 257 nM | 195 nM
AGCUCAGCGUGACUCGAUAAGAGUCACAAACGAGGACCGGUACGGCCGCCACUCGAAAUAAAGGGAGUGAUGUUCUCGCUGAGCA [#SwitchBubble 4 #StaticStem #K4Late] | 641 nM | 300 nM | 370 nM | 274 nM | 625 nM
AGCUGCCGAAUAGAUACCAGUGUCUUUAGUGAUGUUUCAGAGCUGGCACGAUCAGAAGGUCACCCUUGGCAGCUAGUGCCAGCGU [theeternabot_exclusion_KL_Theo_B_39] | 340 nM | 145 nM | 261 nM | 344 nM | 267 nM
AGCUGUAGCAGAAGGAGCGACAGUUAUUCUGAUAGUACUCUGAGUGAUGUUCAGAACGACUGUCAGGUAGGUCGCUGUUACAGCU [Arg B Ex t8b] | 166 nM | 167 nM | 169 nM | 143 nM | 162 nM
AGGAGCGUGGGAUGUAAAUCGCACGCUCCUCGAGGACCGGUACGGCCGCCACUCGCUCGCGCCGAGUGAUGUUCGGCCGGCGAAC [#2 Same State - Tryptophan A Attempt #13 (HarryS)] | 243 nM | 325 nM | 225 nM | 209 nM | 446 nM
AGGAUCCACCAGUGAUGUUGGAAAUACAUCAAGGAUAUGACGAAAGUCAGAAGGUGGUAGACUGGACAAAGUCCAGUUGGAUCCA [KL-SSFMN-A18] | 135 nM | 54.9 nM | 62.7 nM | 112 nM | 66.4 nM
AGGAUCCGUCGACAAAAGUCGACAAUAACCAAGGAUAUGACGAAAGUCAGAAGGUGGUCUUAUGACCAGUGAUGUUGGUGGAUCC [FmnA 15 #SwitchBubble #K4Late] | 891 nM | 245 nM | 500 nM | 197 nM | 243 nM
AGGAUCGAAGAUCCAGCAGUCAAGCAAUACCGAGGACCGGUACGGCCGCCACUCGGAGUGAUGUUCCGAAGACUGCAAAAUAAAA [#SwitchBubble 8] | 640 nM | 1050 nM | 955 nM | 592 nM | 86.2 nM
